Source: patent publication US20230287081A1 (NANTONG YICHEN BIOPHARMA, published 2023)

Tests used:
[1] = molecular target: T1, hPD-L1-hIGg1Fc (SinoBiological) (human, UniProt Q9NZQ7 19-238); test: ELISA, hPD-L1-hIgG1Fc coated
T1 construct: Bought reagent; also called soluble hPD-L1; human PD-L1; not shown: human IgG1 Fc
Procedure: (§1) hPD-L1-hIGg1Fc (SinoBiological) or mouse PD-L1-Fc (SinoBiological) (100 ng/well) was coated in 96-well plates, and incubated overnight at 4° C. […] After being washed with PBST containing 2% skimmed milk powder for 4-5 times, anti-human kappa light chain-HRP (Sigma A7146, 1:3000) secondary antibody was added and incubated at room temperature for 1 h, and then washed with PBST containing 2% skimmed milk powder for 4-5 times. Colordevelopment was performed by QuantaBlu fluorescent peroxidase substrate (Life technologies, Cat.15169) and read at 325 nm and 420 nm, or by TMB color reagent (BioLegend, Cat. 421101) and read at 650 nm (unterminated) or 450 nm (terminated). Data was analyzed by nonlinear regression using specific binding model with Prizm Graphpad software.

[2] = molecular target: T2, hPD-L1 on the cell surface (CHO-hPD-L1 cells; A431 cells) (human, UniProt Q9NZQ7 19-290); test: flow cytometry on CHO-hPD-L1 cells (hEGFR- hPDL1+)
T2 construct: whole, on cells; also called CHO-PD-L1
Procedure: (§2) A431, MC38-hEGFR, CHO-PD-L1, HepG2, and Hepa1-6 cells (DMEM medium containing 10% FBS, 1% double antibody) were cultured. After trypsinization, 2*10⁵ cells were taken and washed with pre-cooled PBS for 3 times. After blocked with PBS containing 2% FBS at 4° C., supernatant was discarded by centrifugation, 100 µL of the antibody fusion proteins with different concentrations diluted by the PBS solution containing 2% FBS were added and incubated at 4° C. for 1 h. The unbound antibody fusion protein was washed off with PBS containing 2% FBS, and secondary antibody Mouse Anti-Human IgG Fc-APC (Southern biotech) was added and incubated at 4° C. for 1 h. After being washed with PBS containing 2% FBS for three times, the fluorescence intensity was detected by flow cytometry.

[3] = molecular target: T3, mouse PD-L1-Fc (SinoBiological) (mouse, UniProt Q9EP73 19-238, limits assumed); test: ELISA, mouse PD-L1-Fc coated
T3 construct: Bought reagent; also called soluble mPD-L1; not shown: Fc
Procedure: as §1

[4] = molecular target: T3, mouse PD-L1-Fc (SinoBiological); test: ELISA, mouse PD-L1-Fc coated; weaker than the PD-1m fusion
Procedure: as §1

[5] = molecular target: T1, hPD-L1-hIGg1Fc (SinoBiological); test: ELISA, hPD-L1-hIgG1Fc coated; weaker than the PD-1m fusion
Procedure: as §1

[6] = molecular target: T2, hPD-L1 on the cell surface (CHO-hPD-L1 …); test: flow cytometry on A431 cells (hGPC3- hPDL1+)
Procedure: as §2

[7] = molecular target: T4, mPDL1 on the surface of Hepa1-6 cells (mouse, UniProt Q9EP73 19-290); test: flow cytometry on Hepa1-6 cells (hGPC3- mPDL1+)
T4 construct: whole, on cells; also called mouse PD-L1
Procedure: as §2

Measured: binding result

T1 sequence (Q9NZQ7 19-238 limits assumed): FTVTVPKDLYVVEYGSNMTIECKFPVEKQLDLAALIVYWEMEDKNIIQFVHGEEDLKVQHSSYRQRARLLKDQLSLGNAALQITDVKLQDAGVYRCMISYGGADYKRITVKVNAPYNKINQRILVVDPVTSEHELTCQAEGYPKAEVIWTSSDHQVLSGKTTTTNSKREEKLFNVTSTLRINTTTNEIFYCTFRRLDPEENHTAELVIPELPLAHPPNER
T3 sequence (Q9EP73 19-238 limits assumed): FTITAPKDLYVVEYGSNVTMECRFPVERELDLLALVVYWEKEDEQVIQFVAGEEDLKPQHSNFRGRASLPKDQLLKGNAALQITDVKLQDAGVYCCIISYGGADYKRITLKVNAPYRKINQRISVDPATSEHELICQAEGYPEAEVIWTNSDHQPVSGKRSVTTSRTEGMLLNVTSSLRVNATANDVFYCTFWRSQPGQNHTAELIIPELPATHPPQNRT
T2 sequence (Q9NZQ7 19-290): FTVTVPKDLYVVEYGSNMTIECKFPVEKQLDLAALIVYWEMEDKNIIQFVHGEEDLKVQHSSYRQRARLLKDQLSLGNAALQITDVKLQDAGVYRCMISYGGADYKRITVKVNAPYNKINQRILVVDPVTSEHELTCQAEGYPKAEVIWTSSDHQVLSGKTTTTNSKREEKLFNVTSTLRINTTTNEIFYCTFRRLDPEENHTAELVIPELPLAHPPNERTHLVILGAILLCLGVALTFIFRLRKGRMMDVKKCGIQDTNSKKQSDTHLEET
T4 sequence (Q9EP73 19-290): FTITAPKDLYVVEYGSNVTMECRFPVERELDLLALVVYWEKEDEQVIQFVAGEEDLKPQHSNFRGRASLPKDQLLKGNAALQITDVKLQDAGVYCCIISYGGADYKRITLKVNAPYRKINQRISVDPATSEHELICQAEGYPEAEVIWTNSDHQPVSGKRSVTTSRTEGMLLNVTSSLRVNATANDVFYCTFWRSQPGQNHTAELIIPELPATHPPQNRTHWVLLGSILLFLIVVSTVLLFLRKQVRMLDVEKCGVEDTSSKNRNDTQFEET

B1: PD-1m-aEGFRL (bispecific antibody, human IgG1, kappa)
heavy: QVQLQESGPGLVKPSETLSLTCTVSGGSVSSGDYYWTWIRQSPGKGLEWIGHIYYSGNTNYNPSLKSRLTISIDTSKTQFSLKLSSVTAADTAIYYCVRDRVTGAFDIWGQGTMVTVSSASTKGPSVFPLAPSSKSTSGGTAALGCLVKDYFPEPVTVSWNSGALTSGVHTFPAVLQSSGLYSLSSVVTVPSSSLGTQTYICNVNHKPSNTKVDKKVEPKSCDKTHTCPPCPAPPVAGPSVFLFPPKPKDTLMISRTPEVTCVVVDVSHEDPEVKFNWYVDGVEVHNAKTKPREEQYNSTYRVVSVLTVLHQDWLNGKEYKCKVSNKGLPSSIEKTISKAKGQPREPQVYTLPPSRDELTKNQVSLTCLVKGFYPSDIAVEWESNGQPENNYKTTPPVLDSDGSFFLYSKLTVDKSRWQQGNVFSCSVMHEALHNHYTQKSLSLSPGK
light: not shown
binds: [1] | [2] | [3]

B2: PD-1-aEGFRL (bispecific antibody)
heavy: QVQLQESGPGLVKPSETLSLTCTVSGGSVSSGDYYWTWIRQSPGKGLEWIGHIYYSGNTNYNPSLKSRLTISIDTSKTQFSLKLSSVTAADTAIYYCVRDRVTGAFDIWGQGTMVTVSSASTKGPSVFPLAPSSKSTSGGTAALGCLVKDYFPEPVTVSWNSGALTSGVHTFPAVLQSSGLYSLSSVVTVPSSSLGTQTYICNVNHKPSNTKVDKKVEPKSCDKTHTCPPCPAPPVAGPSVFLFPPKPKDTLMISRTPEVTCVVVDVSHEDPEVKFNWYVDGVEVHNAKTKPREEQYNSTYRVVSVLTVLHQDWLNGKEYKCKVSNKGLPSSIEKTISKAKGQPREPQVYTLPPSRDELTKNQVSLTCLVKGFYPSDIAVEWESNGQPENNYKTTPPVLDSDGSFFLYSKLTVDKSRWQQGNVFSCSVMHEALHNHYTQKSLSLSPGK
light: not shown
notes: Wild-type human PD-1 fused to the light chain of the anti-human EGFR antibody
binds: [4] | [5]

B3: PD-1m-aGPC-3L (bispecific antibody, human IgG1, kappa)
heavy: QVQLVQSGAEVKKPGASVKVSCKASGYTFTDYEMHWVRQAPGQGLEWMGALDPKTGDTAYSQKFKGRVTLTADKSTSTAYMELSSLTSEDTAVYYCTRFYSYTYWGQGTLVTVSSASTKGPSVFPLAPSSKSTSGGTAALGCLVKDYFPEPVTVSWNSGALTSGVHTFPAVLQSSGLYSLSSVVTVPSSSLGTQTYICNVNHKPSNTKVDKKVEPKSCDKTHTCPPCPAPPVAGPSVFLFPPKPKDTLMISRTPEVTCVVVDVSHEDPEVKFNWYVDGVEVHNAKTKPREEQYNSTYRVVSVLTVLHQDWLNGKEYKCKVSNKGLPSSIEKTISKAKGQPREPQVYTLPPSRDELTKNQVSLTCLVKGFYPSDIAVEWESNGQPENNYKTTPPVLDSDGSFFLYSKLTVDKSRWQQGNVFSCSVMHEALHNHYTQKSLSLSPGK
light: LDSPDRPWNPPTFSPALLVVTEGDNATFTCSFSNTSESFVLNWYRMSPSNQTDKLAAFPEDRSQPGQDSRFRVTQLPNGRDFHMSVVRARRNDSGTYLCGAISLAPKVQIKESLRAELRVTERRAEVPTAHPSPSPRPAGQFQGGGGSGGGGSGGGGSGDVVMTQSPLSLPVTPGEPASISCRSSQSLVHSNRNTYLHWYLQKPGQSPQLLIYKVSNRFSGVPDRFSGSGSGTDFTLKISRVEAEDVGVYYCSQNTHVPPTFGQGTKLEIKRTVAAPSVFIFPPSDEQLKSGTASVVCLLNNFYPREAKVQWKVDNALQSGNSQESVTEQDSKDSTYSLSSTLTLSKADYEKHKVYACEVTHQGLSSPVTKSFNRGEC
binds: [1] | [6] | [7] | [3]
